Experimental data published in patent publication US20210163582A1 (APRINOIA THERAPEUTICS, published 2021).

What was measured:
[1] = target: Tau in 6-month-old rTg4510 brain lysate (UniProt P10636-6 2-383, limits assumed); test: cell-based or functional assay
[2] = target: T1, Tau species in AD (Alzheimer's disease) brain lysate (human, UniProt P10636-8 2-441, limits assumed); test: dot-blot on spotted AD total brain lysate, antibody in 2-fold dilutions from 6×10^-8 M
T1 construct: Endogenous Tau of a tissue lysate, not a defined construct; also called AD Tau protein; AD brain homogenate
T1 sequence (P10636 other isoform, or with tags, fused parts or gaps limits assumed): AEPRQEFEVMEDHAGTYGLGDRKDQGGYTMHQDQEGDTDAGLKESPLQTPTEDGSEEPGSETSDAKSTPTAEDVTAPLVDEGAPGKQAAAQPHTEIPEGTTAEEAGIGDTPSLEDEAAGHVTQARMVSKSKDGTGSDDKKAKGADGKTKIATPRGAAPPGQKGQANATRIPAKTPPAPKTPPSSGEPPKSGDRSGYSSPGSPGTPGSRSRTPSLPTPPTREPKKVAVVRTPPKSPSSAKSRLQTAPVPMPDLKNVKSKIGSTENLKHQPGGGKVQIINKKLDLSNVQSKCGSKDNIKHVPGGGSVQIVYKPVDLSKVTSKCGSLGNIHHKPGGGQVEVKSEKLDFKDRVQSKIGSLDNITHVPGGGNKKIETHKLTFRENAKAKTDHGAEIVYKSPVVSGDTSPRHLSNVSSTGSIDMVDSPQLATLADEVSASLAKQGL
Procedure: To facilitate the therapeutic potentials of mAb005 and mAb037, humanization of mAb005 and mAb037 was performed by grafting the complementary determining regions (CDRs) of Variable Heavy chain (VH) and Variable Light chain (VL) into a human IgG4 S228P backbone (no Fab-arm exchange mutant, Silva et al., 2015 JBC). Four point-mutations were introduced in the nearby residues surrounding the CDRs to conserve the functionality of the resulting variants. Dot-blot analysis was performed to determine the EC₅₀ of each variant, compared with the original mouse/chimeric clones as well as to visualize the specificity to AD Tau protein compared with ND Tau protein. […] Dot-blot experiments were performed by spotting of ND and AD total brain lysates in triplicate, and antibody solutions were diluted serially by a dilution factor of 2 from a maximum concentration of 6×10⁻⁸ M. Summary graphs denote Mean±SD of 3 independent experiments for mAb005 and Mean±SD of triplicated wells.

Tau in 6-month-old rTg4510 brain lysate, sequence (P10636 other isoform, or with tags, fused parts or gaps limits assumed): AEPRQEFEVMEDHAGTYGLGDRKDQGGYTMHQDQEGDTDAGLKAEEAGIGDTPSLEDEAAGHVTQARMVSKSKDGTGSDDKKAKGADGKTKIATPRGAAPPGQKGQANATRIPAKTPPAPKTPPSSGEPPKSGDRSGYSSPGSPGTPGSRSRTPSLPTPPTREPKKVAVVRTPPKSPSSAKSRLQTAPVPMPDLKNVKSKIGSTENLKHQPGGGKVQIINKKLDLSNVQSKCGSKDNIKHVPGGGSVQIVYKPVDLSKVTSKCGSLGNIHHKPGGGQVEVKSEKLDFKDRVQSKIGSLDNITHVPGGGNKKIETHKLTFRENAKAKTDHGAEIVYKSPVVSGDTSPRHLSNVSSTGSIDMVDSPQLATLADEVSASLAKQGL

Row | Binder | EC50 of inhibition of Tau seeding (Tau spots per cell in Tau-LM reporter cells) [1] [nM] | EC50 [2] [nM]
1 | mAb005 (antibody, V domains shown, Mouse monoclonal from hybridoma; also called mouse mAb005; original mouse clone (of mAb005)) VH: EVQLVESGGGLVKPGGSLKLSCAASGFTFSDYGMHWVRQAPEKGLEWVAYSNSDSTTIYYADTVKGRFTISRDNAKSTLFLQMTSLRSEDTAMYYCGRSYYSNYVDYWGQGTTLTVSS VL: DIVMTQIPLSLPVSLGDQASISCRSSQSLVHSNGNTYLHWYLQKPGQSPKLLIYKVSNRFSGVPDRFSGSGSGTDFTLKISRVEAEDLGVYFCFQSTHVPPTFGGGTKLEIK | 72.2 | 0.4
2 | Humanized mAb005 (antibody, V domains shown, also called humanized variant of mAb005) VH: EVQLVESGGGLVQPGGSLRLSCAASGFTFSDYGMHWVRQAPGKGLEWVAYSNSDSTTIYYADTVKGRFTISRDNAKNSLYLQMNSLRAEDTAVYYCGRSYYSNYVDYWGQGTLVTVSS VL: DVVMTQSPLSLPVTLGQPASISCRSSQSLVHSNGNTYLHWYLQRPGQSPRLLIYKVSNRFSGVPDRFSGSGSGTDFTLKISRVEAEDVGVYFCFQSTHVPPTFGQGTKLEIK | – | 0.43
3 | mAb037 (antibody, V domains shown, Mouse monoclonal from hybridoma; also called mouse mAb037; original mouse clone (of mAb037)) VH: EVQLQQSGPELVKPGASVKIPCKASGYTFTDYNMDWVKQSHGKSLEWIGDINPNTGGTIYNQKFKGKATLTVDKSSSTAYMELRSLTSEDTAVYYCAGEGPYYYGTTHPFAYWGQGTLVTVSA VL: not shown | 22.9 | 0.54
4 | Humanized mAb037 (antibody, V domains shown, also called humanized variant of mAb037) VH: QVQLVQSGAEVKKPGASVKVSCKASGYTFTDYNMDWVRQAHGQGLEWIGDINPNTGGTIYNQKFKGRATLTVDTSISTAYMELSRLRSDDTAVYYCAGEGPYYYGTTHPFAYWGQGTLVTVSS VL: DVVMTQSPLSLPVTLGQPASISCKSSQSLLYSNGKTYLNWLLQRPGQSPRRLIYLVSKLDSGVPDRFSGSGSGTDFTLKISRVEAEDVGVYYCVQGTHFPQTFGGGTKLEIK | – | 0.95
